The target in the test is ndufs4^-/- complex I (N-module plus QP subcomplex) (mouse (endogenous in heart and kidney)) (UniProt Q91YT0). Kind of test: cryo-EM structure.

Sequence of assembly factor NDUFAF2 (natural protein) (Q59J78 whole entry): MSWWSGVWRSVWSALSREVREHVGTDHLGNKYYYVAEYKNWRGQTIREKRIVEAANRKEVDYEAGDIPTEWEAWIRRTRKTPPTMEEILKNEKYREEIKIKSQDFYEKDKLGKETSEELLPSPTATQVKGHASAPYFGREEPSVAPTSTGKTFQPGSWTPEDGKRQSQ

As for “assembly factor NDUFAF2 (natural protein)”, the percent of particles that contain NDUFAF2 was found to be 14%.

Source of the values: paper doi:10.1101/2023.07.17.549284.
